Target: CMG helicase (Cdc45-MCM2-7-GINS) (human, UniProt P49736;P25205;P33991;P33992;Q14566;P33993;O75419;Q14691;Q9Y248;Q9BRX5;Q9BRT9 …)
Assay: cryoEM structure (3.29 A); ATPgS 100 uM; 5 mM Mg acetate; ATPgS/Mg2+ at MCM6, 4, 7; ADP at MCM2, 3; MCM5 site empty; Buffer S: 25 mM Hepes pH 7.5, 50 mM KCl, 5 mM Mg acetate, 2 mM DTT, 100 uM ATPgS; 4 uM fork DNA applied to StrepTrap-bound CMG, eluted with 15 mM desthiobiotin; binding temperature not stated (stored overnight at 4 C)
Details: protein: recombinant; tags: MCM4 N-terminal His8-TEV; Psf2 C-terminal TEV-2xStrepII; copies: 1;1;1;1;1;1;1;1;1;1;1; fork: 40 bp duplex, 30 nt 3' poly-dT tail (strand 1) and 30 nt 5' GC-rich tail (strand 2)

B1: fork DNA 70T/70GC (dsDNA)
DNA 1: CGTTTTACAACGTCGTGACTGGGCACTTGATCGGCCAACCTTTTTTTTTTTTTTTTTTTTTTTTTTTTTT
DNA 2: CAGGCAGGCAGGCAGGCAGGCAGGCAGGCAGGTTGGCCGATCAAGTGCCCAGTCACGACGTTGTAAAACG
binding result: binds

— paper doi:10.1101/2020.01.22.914192, “CryoEM structures of human CMG - ATPγS - DNA and CMG - AND-1 complexes”
